The target of assay [1] is HLA-DR (L243 antigen) on canine lymphocytes and canine lymphoma cells (dog). Nature of the assay: flow cytometry, dog lymphoma aspirate; none 4.48; control antibody. (In flow cytometry, cells or beads pass a laser one at a time.)
Assay [2] has as its target HLA-DR (human leukocyte antigen-DR) on human lymphoma and leukemia cells and human lymphocytes (human). Put plainly: indirect flow cytometry, Namalwa cells, FITC-GAH 2nd Ab; none 2.52; control antibody (anti-CEA).
Assay [3] has as its target HLA-DR (L243 antigen) on canine lymphocytes and canine lymphoma cells (dog). Put plainly: flow cytometry, dog lymphoma aspirate; none 3.24; control antibody.
The target in assay [4] is HLA-DR (human leukocyte antigen-DR) on human lymphoma and leukemia cells and human lymphocytes (human). Put plainly: indirect flow cytometry, Raji cells, FITC-GAH Fc 2nd Ab; none 6.9; negative control antibody.
The target of assay [5] is HLA-DR (L243 antigen) on canine lymphocytes and canine lymphoma cells (dog). Put plainly: flow cytometry, canine lymphoma aspirate 150836; none 3.2; control antibody.
In assay [6] the target is HLA-DR (human leukocyte antigen-DR) on human lymphoma and leukemia cells and human lymphocytes (human). Nature of the assay: indirect flow cytometry, SU-DHL-6 cells, FITC-GAH Fc 2nd Ab; none 4.6; negative control antibody.
The target is the same in assay [7]. Put plainly: indirect FACS, Daudi cells, FITC-GAH Fc 2nd Ab; none 3.1; control antibody.
For assay [8] the target is unchanged. Nature of the assay: indirect flow cytometry, RL cells, FITC-GAH Fc 2nd Ab; none 2.4; negative control antibody.
Assay [9] shares this target. Nature of the assay: indirect FACS, Namalwa cells, FITC-GAH Fc 2nd Ab; none 2.5; control antibody.
Assay [10] has the same target. Nature of the assay: indirect FACS, Raji cells, FITC-GAH Fc 2nd Ab; none 6.8; control antibody.
Assay [11] has as its target HLA-DR (L243 antigen) on canine lymphocytes and canine lymphoma cells (dog). Nature of the assay: flow cytometry, canine lymphoma aspirate 150836; none 4.5; control antibody.
In assay [12] the target is HLA-DR (human leukocyte antigen-DR) on human lymphoma and leukemia cells and human lymphocytes (human). Put plainly: indirect flow cytometry, Ramos cells, FITC-GAH Fc 2nd Ab; none 3.1; negative control antibody.
The target is the same in assay [13]. Put plainly: indirect flow cytometry, WSU-FSCCL cells, FITC-GAH Fc 2nd Ab; none 2.7; negative control antibody.
Assay [14] shares this target. Nature of the assay: indirect flow cytometry, Daudi cells, FITC-GAH Fc 2nd Ab; none 3.2; negative control antibody.
Assay [15] has the same target. Nature of the assay: indirect FACS, Ramos cells, FITC-GAH Fc 2nd Ab; none 3.1; control antibody.
Assay [16] has the same target. Nature of the assay: indirect flow cytometry, Namalwa cells, FITC-GAH Fc 2nd Ab; none 2.6; negative control antibody.
Assay [17] has the same target. Nature of the assay: indirect FACS, SU-DHL-6 cells, FITC-GAH Fc 2nd Ab; none 4.6; control antibody.
For assay [18] the target is unchanged. Put plainly: indirect FACS, WSU-FSCCL cells, FITC-GAH Fc 2nd Ab; none 2.6; control antibody.
Assay [19] has as its target T1, CD20 on human cells (human) (UniProt P11836).
T1 sequence (looked up): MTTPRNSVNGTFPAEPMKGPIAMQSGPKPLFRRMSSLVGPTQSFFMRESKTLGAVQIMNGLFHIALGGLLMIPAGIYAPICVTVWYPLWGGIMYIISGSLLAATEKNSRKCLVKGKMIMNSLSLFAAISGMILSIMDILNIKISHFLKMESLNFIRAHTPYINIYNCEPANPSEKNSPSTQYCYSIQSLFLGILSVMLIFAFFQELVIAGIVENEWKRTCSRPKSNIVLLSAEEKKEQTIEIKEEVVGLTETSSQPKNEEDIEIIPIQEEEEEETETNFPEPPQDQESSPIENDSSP
Put plainly: indirect flow cytometry, Ramos cells, FITC-GAH Fc 2nd Ab; none 3.1.

The target of assay [20] is T2, CD20 on dog lymphocytes and dog lymphoma cells (dog) (UniProt Q3C2E2).
T2 sequence (looked up): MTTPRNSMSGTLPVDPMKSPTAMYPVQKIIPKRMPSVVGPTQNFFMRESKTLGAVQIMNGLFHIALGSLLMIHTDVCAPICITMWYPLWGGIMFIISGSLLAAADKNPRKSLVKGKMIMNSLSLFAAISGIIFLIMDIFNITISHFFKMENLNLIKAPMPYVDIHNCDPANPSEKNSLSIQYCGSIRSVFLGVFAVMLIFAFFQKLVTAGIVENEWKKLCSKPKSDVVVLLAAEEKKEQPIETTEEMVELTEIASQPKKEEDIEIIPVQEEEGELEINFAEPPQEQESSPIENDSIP
Put plainly: flow cytometry, dog lymphoma aspirate; none 4.48.

Assay [21] concerns the target T1, CD20 on human cells (human). Nature of the assay: indirect FACS, Namalwa cells, FITC-GAH Fc 2nd Ab; none 2.5.
For assay [22] the target is unchanged. Nature of the assay: indirect flow cytometry, Namalwa cells, FITC-GAH 2nd Ab; none 2.52.
Assay [23] has the same target. Nature of the assay: indirect FACS, SU-DHL-6 cells, FITC-GAH Fc 2nd Ab; none 4.6.
Assay [24] has the same target. Nature of the assay: indirect FACS, Raji cells, FITC-GAH Fc 2nd Ab; none 6.8.
Assay [25] shares this target. Put plainly: indirect flow cytometry, Namalwa cells, FITC-GAH Fc 2nd Ab; none 2.6.
Assay [26] addresses T2, CD20 on dog lymphocytes and dog lymphoma cells (dog). Nature of the assay: flow cytometry, canine lymphoma aspirate 150836; none 4.5.
The target is the same in assay [27]. Nature of the assay: flow cytometry, dog lymphoma aspirate; none 3.24.
Assay [28] addresses T1, CD20 on human cells (human). Put plainly: indirect FACS, Daudi cells, FITC-GAH Fc 2nd Ab; none 3.1.
The target in assay [29] is T2, CD20 on dog lymphocytes and dog lymphoma cells (dog). Put plainly: flow cytometry, canine lymphoma aspirate 150836; none 3.2.
Assay [30] concerns the target T1, CD20 on human cells (human). Put plainly: indirect flow cytometry, Raji cells, FITC-GAH Fc 2nd Ab; none 6.9.
Assay [31] shares this target. Put plainly: indirect FACS, WSU-FSCCL cells, FITC-GAH Fc 2nd Ab; none 2.6.
The next assay concerns the target human serum complement. Put plainly: cell-based or functional assay.
For assay [32], the target named is T1, CD20 on human cells (human). Put plainly: indirect flow cytometry, Daudi cells, FITC-GAH Fc 2nd Ab; none 3.2.
Assay [33] has the same target. Put plainly: indirect flow cytometry, RL cells, FITC-GAH Fc 2nd Ab; none 2.4.
For assay [34] the target is unchanged. Put plainly: indirect FACS, Ramos cells, FITC-GAH Fc 2nd Ab; none 3.1.
Assay [35] has the same target. Put plainly: indirect flow cytometry, SU-DHL-6 cells, FITC-GAH Fc 2nd Ab; none 4.6.
For assay [36] the target is unchanged. Put plainly: indirect flow cytometry, WSU-FSCCL cells, FITC-GAH Fc 2nd Ab; none 2.7.

Data on 2 molecules can be found in patent publication US20160355591A1.

B1: hMN-14 (labetuzumab, humanized anti-carcinoembryonic antigen IgG1) (antibody, INN chains, looked up, V domains shown)
VH: EVQLVESGGGVVQPGRSLRLSCSASGFDFTTYWMSWVRQAPGKGLEWIGEIHPDSSTINYAPSLKDRFTISRDNAKNTLFLQMDSLRPEDTGVYFCASLYFGFPWFAYWGQGTPVTVSS
VL: DIQLTQSPSSLSASVGDRVTITCKASQDVGTSVAWYQQKPGKAPKLLIYWTSTRHTGVPSRFSGSGSGTDFTFTISSLQPEDIATYYCQQYSLYRSFGQGTKVEIKR
For B1, the % Positive in assay [1] is 4.63%; in assay [11] it was 4.6%. Besides, the geometric mean fluorescence in assay [2] stood at 2.49; in [4] it was 7; in [6] it was 4.9; in [7], 3.16; in [8] it was 2.8; in assay [9], 2.36. The geometric mean fluorescence amounted to 6.96 in assay [10]; 3.1 in assay [12]; 2.7 in assay [13]; 3.2 in assay [14]; 3.13 in [15]; 2.4 in assay [16]. In addition, the geometric mean fluorescence amounted to 4.94 in [17] and 2.66 in assay [18]. Moreover, the figures for the mean FL in assay [3] and in assay [5] were 3.24 and 3.2, respectively.

B2: hA20 (veltuzumab, humanized anti-CD20 IgG1) (antibody, INN chains, looked up, V domains shown, part only)
VH: QVQLQQSGAEVKKPGSSVKVSCKASGYTFTSYNMHWVKQAPGQGLEWIGAIYPGMGDTSYNQKFKGKATLTADESTNTAYMELSSLRSEDTAFYYCARSTYYGGDWYFDVWGQGTTVTVSS
VL: DIQLTQSPSSLSASVGDRVTMTCRASSSVSYIHWFQQKPGKAPKPWIYATSNLASGVPVRFSGSGSGTDYTFTISSLQPEDIATYYCQQWTSNPPTFGGGTKLEIKR
For the molecule B2, the geometric mean fluorescence in assay [19] came out at 204; in assay [21], 10.1; in assay [22], 6.28; in [23], 1200; in assay [24] it was 267; in [25], 10.1. The geometric mean fluorescence is 241 in [28]; 267 in assay [30]; 8.91 in [31]; 241 in assay [32]; 128 in assay [33]; 204 in [34]. Besides, the geometric mean fluorescence in [35] was 1200; in assay [36], 8.9. Besides, the % Positive was determined as 3.96% in [20] and 4% in [26]. Besides, the mean FL in assay [27] came to 3.25; in assay [29] it was 3.3. Besides, the complement-mediated cytotoxic effect on Daudi cells (CDC, resazurin viability), EC50 with human serum complement is 660 pM.
